Experimental findings from PMC314469, “Protein Interaction Networks by Proteome Peptide Scanning” (PLoS Biology, 2004) are described below.

The labels stand for the following.
T1: amphyphisin SH3 (AMPH_HUMAN), P49418
T1 chain: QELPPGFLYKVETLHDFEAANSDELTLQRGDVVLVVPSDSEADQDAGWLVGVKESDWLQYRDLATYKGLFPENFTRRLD

The target in the first test is T1, amphyphisin SH3 (AMPH_HUMAN), P49418. The experiment in a line: SPOT array.
As for NTFHILRPTKAPGF [Q9Y2L0 734-747], the normalised SPOT signal, Boehringer light units (BLU); mean over the file's lines of this peptide was determined as 194.

Consider NSRNPRRPPPSSVN [Q96T16 198-211], for which the normalised SPOT signal, Boehringer light units (BLU); mean over the file's lines of this peptide is 78.8.

In the case of NVPIPERPPPVPPP [Q96BJ8 361-375], the normalised SPOT signal, Boehringer light units (BLU); mean over the file's lines of this peptide is 37.6.

Turning to ARLYLRRPAADGAE [Q14181 572-585], the normalised SPOT signal, Boehringer light units (BLU); mean over the file's lines of this peptide was 43.

Take NQSVPKRPAGSVQN [P00533 1094-1107]: the normalised SPOT signal, Boehringer light units (BLU); mean over the file's lines of this peptide was 23.4.

PAAAPRRPFSWEDV [O95696 687-700] came in with a normalised SPOT signal, Boehringer light units (BLU); mean over the file's lines of this peptide of 28.

In turn, PAAPPKKPPRPGAP [Q05397 868-882] gave a normalised SPOT signal, Boehringer light units (BLU); mean over the file's lines of this peptide of 2460.

As for NVLVPSRPPRNPYD [BAC03435 232-246], the normalised SPOT signal, Boehringer light units (BLU); mean over the file's lines of this peptide is 4650.

In the case of NSSRPGRPPKRSLG [Q96NX9 174-188], the normalised SPOT signal, Boehringer light units (BLU); mean over the file's lines of this peptide was found to be 4020.

With NVSSFRRPRRSSDK [Q9P2Y5 686-699], the normalised SPOT signal, Boehringer light units (BLU); mean over the file's lines of this peptide came out at 2350.

For the molecule NTAKPTRPPSESSS [Q9Y2E7 460-474], the normalised SPOT signal, Boehringer light units (BLU); mean over the file's lines of this peptide came to 48.6.

As to NQKQLKRPAQGKRQ [Q9H6S7 54-67], the normalised SPOT signal, Boehringer light units (BLU); mean over the file's lines of this peptide is -0.

NNRVLRRPSERGRA [Q9Y3S6 986-999] registered a normalised SPOT signal, Boehringer light units (BLU); mean over the file's lines of this peptide of 150.

Turning to NYKNIKRPPGDIMF [Q9Y310 97-110], the normalised SPOT signal, Boehringer light units (BLU); mean over the file's lines of this peptide turned out to be 19.

NRWGPGRPPFRKAQ [Q9Y2K9 813-827] showed a normalised SPOT signal, Boehringer light units (BLU); mean over the file's lines of this peptide of 67.5.

For NPALFPRPERYNPQ [P15538 413-426], the normalised SPOT signal, Boehringer light units (BLU); mean over the file's lines of this peptide came to 318.

For the molecule NSAGISRPSRVSDA [P54296 461-474], the normalised SPOT signal, Boehringer light units (BLU); mean over the file's lines of this peptide came out at 362.

Molecule PAALLYRPVRQYVY [Q9NZB2 597-610] returned a normalised SPOT signal, Boehringer light units (BLU); mean over the file's lines of this peptide of 379.

As to NSDTPPRPDRLPLD [Q05209 516-529], the normalised SPOT signal, Boehringer light units (BLU); mean over the file's lines of this peptide was 125.

With NSFSPQKPPGHSSR [Q9BX63 202-216], the normalised SPOT signal, Boehringer light units (BLU); mean over the file's lines of this peptide worked out at 43.8.

In turn, NSHLLPRPLRHLAS [P47901 342-355] displayed a normalised SPOT signal, Boehringer light units (BLU); mean over the file's lines of this peptide of 1620.

For PAAPPKRPAVASAR [P27816 749-762], the normalised SPOT signal, Boehringer light units (BLU); mean over the file's lines of this peptide came out at 64.4.

The molecule NSSSFKRPDGEMNI [O00463 504-517] returned a normalised SPOT signal, Boehringer light units (BLU); mean over the file's lines of this peptide of 7.2.

Consider NSPTLERPGRKRKW [Q9H247 116-129], for which the normalised SPOT signal, Boehringer light units (BLU); mean over the file's lines of this peptide was found to be 497.

As for PAALLRRPGLGRLV [P30049 3-16], the normalised SPOT signal, Boehringer light units (BLU); mean over the file's lines of this peptide was found to be 4.9.

On to NSMGIKRPAPQPAS [O94830 308-321], for which the normalised SPOT signal, Boehringer light units (BLU); mean over the file's lines of this peptide was 24.3.

In turn, ARLPPPRPQRPAET [Q9NQE0 226-239] gave a normalised SPOT signal, Boehringer light units (BLU); mean over the file's lines of this peptide of 678.

Consider NSSHIKRPMNAFMV [Q9UN79 402-415], for which the normalised SPOT signal, Boehringer light units (BLU); mean over the file's lines of this peptide was 37.1.

For another test, the target named is endophilin SH3 (SH3G2_HUMAN), Q99962. The experiment in a line: SPOT array.
Consider NTFHILRPTKAPGF [Q9Y2L0 734-747], for which the normalised SPOT signal, Boehringer light units (BLU); mean over the file's lines of this peptide was determined as 256.

NSRNPRRPPPSSVN [Q96T16 198-211] displayed a normalised SPOT signal, Boehringer light units (BLU); mean over the file's lines of this peptide of 464.

Molecule NVPIPERPPPVPPP [Q96BJ8 361-375] yielded a normalised SPOT signal, Boehringer light units (BLU); mean over the file's lines of this peptide of 84.

Consider ARLYLRRPAADGAE [Q14181 572-585], for which the normalised SPOT signal, Boehringer light units (BLU); mean over the file's lines of this peptide is 91.8.

In the case of NQSVPKRPAGSVQN [P00533 1094-1107], the normalised SPOT signal, Boehringer light units (BLU); mean over the file's lines of this peptide amounted to 26.5.

In the case of PAAAPRRPFSWEDV [O95696 687-700], the normalised SPOT signal, Boehringer light units (BLU); mean over the file's lines of this peptide was found to be 50.4.

On to PAAPPKKPPRPGAP [Q05397 868-882], for which the normalised SPOT signal, Boehringer light units (BLU); mean over the file's lines of this peptide was determined as 792.

In turn, NVLVPSRPPRNPYD [BAC03435 232-246] gave a normalised SPOT signal, Boehringer light units (BLU); mean over the file's lines of this peptide of 2920.

Turning to NSSRPGRPPKRSLG [Q96NX9 174-188], the normalised SPOT signal, Boehringer light units (BLU); mean over the file's lines of this peptide was 18800.

NVSSFRRPRRSSDK [Q9P2Y5 686-699]: the normalised SPOT signal, Boehringer light units (BLU); mean over the file's lines of this peptide was found to be 105.

Consider NTAKPTRPPSESSS [Q9Y2E7 460-474], for which the normalised SPOT signal, Boehringer light units (BLU); mean over the file's lines of this peptide is 141.

NQKQLKRPAQGKRQ [Q9H6S7 54-67] returned a normalised SPOT signal, Boehringer light units (BLU); mean over the file's lines of this peptide of 68.6.

Consider NNRVLRRPSERGRA [Q9Y3S6 986-999], for which the normalised SPOT signal, Boehringer light units (BLU); mean over the file's lines of this peptide was 652.

In turn, NYKNIKRPPGDIMF [Q9Y310 97-110] registered a normalised SPOT signal, Boehringer light units (BLU); mean over the file's lines of this peptide of 36.

NRWGPGRPPFRKAQ [Q9Y2K9 813-827] displayed a normalised SPOT signal, Boehringer light units (BLU); mean over the file's lines of this peptide of 6400.

With NPALFPRPERYNPQ [P15538 413-426], the normalised SPOT signal, Boehringer light units (BLU); mean over the file's lines of this peptide was 102.

Take NSAGISRPSRVSDA [P54296 461-474]: the normalised SPOT signal, Boehringer light units (BLU); mean over the file's lines of this peptide turned out to be 95.7.

Consider PAALLYRPVRQYVY [Q9NZB2 597-610], for which the normalised SPOT signal, Boehringer light units (BLU); mean over the file's lines of this peptide turned out to be 430.

With NSDTPPRPDRLPLD [Q05209 516-529], the normalised SPOT signal, Boehringer light units (BLU); mean over the file's lines of this peptide worked out at 0.

With NSFSPQKPPGHSSR [Q9BX63 202-216], the normalised SPOT signal, Boehringer light units (BLU); mean over the file's lines of this peptide was 505.

Consider NSHLLPRPLRHLAS [P47901 342-355], for which the normalised SPOT signal, Boehringer light units (BLU); mean over the file's lines of this peptide came out at 2290.

The molecule PAAPPKRPAVASAR [P27816 749-762] came in with a normalised SPOT signal, Boehringer light units (BLU); mean over the file's lines of this peptide of 2200.

NSSSFKRPDGEMNI [O00463 504-517]: the normalised SPOT signal, Boehringer light units (BLU); mean over the file's lines of this peptide was found to be 39.5.

On to NSPTLERPGRKRKW [Q9H247 116-129], for which the normalised SPOT signal, Boehringer light units (BLU); mean over the file's lines of this peptide was found to be 81.5.

Take PAALLRRPGLGRLV [P30049 3-16]: the normalised SPOT signal, Boehringer light units (BLU); mean over the file's lines of this peptide was found to be 81.5.

As to NSMGIKRPAPQPAS [O94830 308-321], the normalised SPOT signal, Boehringer light units (BLU); mean over the file's lines of this peptide amounted to 165.

Consider ARLPPPRPQRPAET [Q9NQE0 226-239], for which the normalised SPOT signal, Boehringer light units (BLU); mean over the file's lines of this peptide came out at 3150.

Consider NSSHIKRPMNAFMV [Q9UN79 402-415], for which the normalised SPOT signal, Boehringer light units (BLU); mean over the file's lines of this peptide was determined as 176.
